Results taken from the supplement of paper PMC7877785.
± gives the uncertainty stated by the source.

Assay: self-splicing fitness, log relative to wild type (ln ratio); higher = more splicing; Tetrahymena group I intron in knt gene, E. coli kanamycin selection, DiMSum; sequences stand for … in CUCUCU…GGAGGGAAAAGUUAUCAGGCAUGCACCUGGUAGCUAGUCUUUAAACCAAUAGAUUGCAUCGGUUUAAAAGGCAAGACCGUCAAAUUGCGGGAAAGGGGUCAACAGCCGUUCAGUACCAAGUCUCAGGGGAAACUUUGAGAUGGCCUUGCAAAGGGUAUGGUAAUAAGCUGACGGACAUGGUCCUAACCACGCAGCCAAGUCCUAAGUCAACAGAUCUUCUGUUGAUAUGGAUGCAGUUCACAGACUAAAUGUCGGUCGGGGAAGAUGUAUUCUUCUCAUAAGAUAUAGUCGGACCUCUCCUUAAUGGGAGCUAGCGGAUGAAGUGAUGCAACACUGGAGCCGCUGGGAACUAAUUUGUAUGCGAAAGUAUAUUGAUUAGUUUUGGAGUACUCGUGGUCG
In short: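 Colonies from six replicate transformations of E. coli BL21(DE3) were pooled and amplicon-sequenced on an Illumina HiSeq 2500. The library placed an intron with all eight P1ex-region nucleotides randomised inside the knt kanamycin-resistance gene on pET-22b(+), and cells grew overnight at 37°C or 30°C on LB agar with or without 25 μg/mL kanamycin (plus 100 μg/mL carbenicillin, 50 μM IPTG, 0.2% rhamnose). Fitness is the DiMSum error-weighted combination of wild-type-normalised replicate fold changes, kanamycin versus none.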

Sequence | self-splicing fitness (ln) (30 °C) | self-splicing fitness (ln) (37 °C)
GACAAGCAAUAUUACGACGC | 0.305 ± 0.1 | 0.643 ± 0.13
ACUGAGCAAUAUUACGGUUG | -2.76 ± 0.14 | -1.73 ± 0.15
UACUAGCAAUAUUACGGGUA | -2.08 ± 0.14 | -1.84 ± 0.13
AAGCAGCAAUAUUACGUUUU | -3.3 ± 0.14 | -2.52 ± 0.14
GAUCAGCAAUAUUACGAAGC | -1.74 ± 0.078 | -0.845 ± 0.086
CCCGAGCAAUAUUACGAGAG | -3.25 ± 0.2 | -2.15 ± 0.36
GACUAGCAAUAUUACGCAGG | -3.04 ± 0.17 | -2.17 ± 0.12
AGGCAGCAAUAUUACGUAAA | -2 ± 0.085 | -0.673 ± 0.099
UUAUAGCAAUAUUACGCCCG | -1.45 ± 0.36 | –
AACCAGCAAUAUUACGCUGU | -3.49 ± 0.15 | -1.4 ± 0.095
GGUAAGCAAUAUUACGUUGC | -3.3 ± 0.32 | -2.95 ± 0.4
CGCCAGCAAUAUUACGAAUU | -4.49 ± 0.27 | -1.46 ± 0.17
AUAAAGCAAUAUUACGCGCG | -0.354 ± 0.09 | 0.713 ± 0.12
GCUGAGCAAUAUUACGCUGC | -2.56 ± 0.32 | -1.92 ± 0.3
ACAAAGCAAUAUUACGUUGG | -2.44 ± 0.068 | -1.57 ± 0.079
GUUUAGCAAUAUUACGAUCC | -0.72 ± 0.26 | -0.434 ± 0.32
UAGAAGCAAUAUUACGCGAG | -0.342 ± 0.12 | -0.636 ± 0.12
GAAGAGCAAUAUUACGGGCA | -1.96 ± 0.16 | -1.23 ± 0.14
AGGCAGCAAUAUUACGUGUG | -2.98 ± 0.11 | -1.44 ± 0.096
GUAAAGCAAUAUUACGCACU | 0.0854 ± 0.099 | -0.289 ± 0.12
UUUUAGCAAUAUUACGUCUU | -2.43 ± 0.18 | -1.33 ± 0.19
AUGGAGCAAUAUUACGUGUC | -4.57 ± 0.46 | -2.71 ± 0.28
CGUAAGCAAUAUUACGGAGC | -4.17 ± 0.39 | –
UUGGAGCAAUAUUACGUUUG | -4.04 ± 0.25 | -2.92 ± 0.28
CUGAAGCAAUAUUACGCACC | -2.27 ± 0.34 | –
CAAAAGCAAUAUUACGGCUA | -0.892 ± 0.088 | -0.809 ± 0.083

Sequence | self-splicing fitness (ln) (30 °C) | self-splicing fitness (ln) (37 °C)
CCCCAGCAAUAUUACGACGA | -4.12 ± 0.39 | -2.68 ± 0.27
GAACAGCAAUAUUACGGAAC | -1.44 ± 0.1 | -1.55 ± 0.13
GACAAGCAAUAUUACGCCGG | -2.63 ± 0.32 | -1.92 ± 0.28
AUGGAGCAAUAUUACGCACU | -0.628 ± 0.14 | -0.159 ± 0.18
CAACAGCAAUAUUACGAAUG | -1.04 ± 0.058 | -0.229 ± 0.074
GAAGAGCAAUAUUACGGACU | -2.93 ± 0.22 | -1.14 ± 0.13
GCUAAGCAAUAUUACGGAUG | -1.52 ± 0.081 | -0.677 ± 0.12
CAUCAGCAAUAUUACGUGAG | -0.345 ± 0.055 | -0.244 ± 0.073
AAGCAGCAAUAUUACGUUGC | -2.46 ± 0.099 | -3.24 ± 0.21
UAAGAGCAAUAUUACGAACU | -2.49 ± 0.47 | –
CCGGAGCAAUAUUACGAUGA | -2.7 ± 0.23 | -1.37 ± 0.23
AUACAGCAAUAUUACGAACG | -0.79 ± 0.12 | -1.44 ± 0.17
AUUAAGCAAUAUUACGUCCC | -0.338 ± 0.18 | 0.486 ± 0.23
GCAAAGCAAUAUUACGCAAU | -3.41 ± 0.13 | -1 ± 0.092
GCAUAGCAAUAUUACGGUGC | -3.71 ± 0.46 | –
UGUUAGCAAUAUUACGCGUG | -0.492 ± 0.11 | -0.61 ± 0.099
CCCGAGCAAUAUUACGUGCC | -4.31 ± 0.3 | -3.26 ± 0.37
AUACAGCAAUAUUACGCUAG | -1.61 ± 0.079 | -1.23 ± 0.096
AGUCAGCAAUAUUACGACUC | -3.14 ± 0.25 | -2.21 ± 0.24
AUAGAGCAAUAUUACGUAUA | -2.1 ± 0.19 | -0.371 ± 0.21
ACGUAGCAAUAUUACGUCUA | -0.802 ± 0.27 | -1.22 ± 0.18
GACCAGCAAUAUUACGCCGG | -2.59 ± 0.16 | -2.58 ± 0.29
AGCUAGCAAUAUUACGAUGU | -1.79 ± 0.096 | -0.235 ± 0.13
UUUGAGCAAUAUUACGUUCG | -4.2 ± 0.42 | -1.18 ± 0.19
GCACAGCAAUAUUACGAUAG | -1.91 ± 0.087 | -1.14 ± 0.1
CCGUAGCAAUAUUACGGGUA | -2.75 ± 0.32 | -2.67 ± 0.36

Sequence | self-splicing fitness (ln) (30 °C) | self-splicing fitness (ln) (37 °C)
CAGGAGCAAUAUUACGCGCA | -3.62 ± 0.3 | -1.62 ± 0.25
AAACAGCAAUAUUACGGGUA | -2.58 ± 0.093 | -1.31 ± 0.072
AUUGAGCAAUAUUACGUUCG | -1.65 ± 0.13 | -1.14 ± 0.14
AGACAGCAAUAUUACGCGAC | -3.41 ± 0.44 | -1.99 ± 0.21
UUGAAGCAAUAUUACGAUAU | -1.97 ± 0.075 | -1.03 ± 0.1
CGGUAGCAAUAUUACGAGGG | -3.72 ± 0.36 | -2.96 ± 0.25
GGCAAGCAAUAUUACGGAGC | -1.36 ± 0.2 | 0.0393 ± 0.25
UCUAAGCAAUAUUACGGAAG | -4.81 ± 0.46 | -1.49 ± 0.17
ACCUAGCAAUAUUACGUUCC | -1.5 ± 0.086 | -0.914 ± 0.12
GUGUAGCAAUAUUACGGCGA | -1.18 ± 0.089 | -0.268 ± 0.098
CGCAAGCAAUAUUACGCGGC | -3.05 ± 0.28 | -2.81 ± 0.38
GACCAGCAAUAUUACGUCCU | -1.86 ± 0.1 | 0.317 ± 0.11
GUUAAGCAAUAUUACGGCCC | 0.0722 ± 0.14 | 0.517 ± 0.17
ACGCAGCAAUAUUACGCAAU | -1.76 ± 0.11 | -1.85 ± 0.15
GGUGAGCAAUAUUACGUUCC | -1.39 ± 0.18 | -0.666 ± 0.24
UGCCAGCAAUAUUACGCUAU | -0.882 ± 0.16 | -1.13 ± 0.16
AGCCAGCAAUAUUACGUACG | -3.04 ± 0.17 | -2.65 ± 0.17
CAUUAGCAAUAUUACGAAUC | -4.46 ± 0.31 | -2.49 ± 0.18
CAGCAGCAAUAUUACGCGGC | -4.03 ± 0.27 | -2.95 ± 0.18
UGAUAGCAAUAUUACGCUCC | – | -0.916 ± 0.3
GACGAGCAAUAUUACGUAUC | – | -2.42 ± 0.35
UAAUAGCAAUAUUACGUGUG | -1.6 ± 0.073 | -0.917 ± 0.074
AUUCAGCAAUAUUACGUAGC | -3.44 ± 0.26 | -1.43 ± 0.19
AAGCAGCAAUAUUACGCCGG | -1.52 ± 0.11 | -0.994 ± 0.17
GUAUAGCAAUAUUACGACAA | -0.741 ± 0.27 | -1.34 ± 0.3
